Results on one substance are retold here after PMC8408865.

For this experiment, the target named is C-terminal domain of Caenorhabditis elegans KCC-1, wild type, as used in solution (SEC, SEC/MALS) (C. elegans). Put plainly: SEC.

Take “C-terminal domain of Caenorhabditis elegans KCC-1, wild type, as used in solution (SEC, SEC/MALS) (domain or fragment)”: the stoichiometry N (as a rule, a count of units in the complex or per binding partner) was 2.
